Measurements taken from patent publication US20240279618A1, “RECEPTOR TYROSINE KINASE AGONIST, COMPOSITION FOR CELL CULTURE MEDIUM, AND […] MAINTENANCE COMPOSITION” (SEKISUI CHEMICAL CO., LTD., priority 2021, published 2024).

Tests used:
iPS cells (253G1 cells) = assay: iPS cell culture: evaluation of undifferentiated state (immunostaining); type: cell-based, human; conditions: second passage, Day 6 (Culture day 20)
Experimental: The cells were cultured in the medium of each group for 3 to 5 weeks, and the following operations were performed on Days 4 to 7 of the passage. After washing the cells with D-PBS, 1 mL/well of 4% formaldehyde was added. After being left to stand for 30 minutes or longer, the solution was removed and washing was performed with D-PBS. 0.1% Triton X-100/D-PBS was added thereto and the mixture was left to stand at room temperature for 3 to 5 minutes. After washing with D-PBS, 1% of BSA/D-PBS was added thereto and the mixture was left to stand for 30 minutes.
An antibody for undifferentiation marker staining, such as OCT4 (Abcam, ab19857) or SSEA4 (Abcam, ab16287), was diluted in 1% BSA/D-PBS at an appropriate ratio, added to a well, which was left to stand for 30 to 60 minutes. After washing with D-PBS, secondary antibodies (a Goat anti-Rabbit IgG antibody (Abcam, ab 150115) and a Goat anti-Mouse IgG antibody (Abcam, ab150077)) were diluted in 1% BSA/D-PBS at an appropriate ratio and added to the wells, which were left to stand with light shielded with an aluminum foil for 30 to 60 minutes. DAPI (DOJINDO LABORATORIES, 340-07971) was diluted with 1% BSA/D-PBS to a concentration of 1 to 10 μg/mL, and added to each well, which was left to stand for 5 minutes. […] The image was acquired by observing the sample under a fluorescence microscope.

[1] = system: human bone marrow-derived MSC; assay: MSC culture: evaluation of MSC markers by flow cytometry; type: cell-based; conditions: MSC fourth passage, 10% or 20% FBS; for CD90-expressing (positive) cells: over the concentrations tested
Experimental: On Day 5 after the initial seeding, D-PBS was added to the cells and removed by suction. 500 μL of TrypLE Express was added to each well and the mixture was left to stand in a CO2 incubator for 5 to 10 minutes. The cells were observed under a microscope, and in a case where it was possible to confirm that the cells had changed in morphology, a medium was added thereto, and the cells were recovered in a PP tube by pipetting, and centrifuged (300× g, 5 minutes). After the centrifugation, the supernatant was removed by suction, an appropriate amount of 1% BSA/PBS was added to the pellet, and the mixture was pipetted to form a suspension.
A part of the suspension was collected and the number of cells was evaluated with a cell counter. Dilution was performed with 1% of BSA/PBS, so that the concentration was 0.6 to 1.0× 10^6 cells/mL. 50 μL of the mixture was dispensed into a 2 mL tube, so that the concentration was 3 to 5×10^4 cells/tube.
Equal amounts of the suspension subjected to the cell counter and the antibody solution adjusted above were mixed, and the mixture was left to stand on ice for 30 minutes or longer with light shielded. 1% of BSA/PBS was added thereto, the mixture was centrifuged (400 to 600×g, 5 minutes), and then the supernatant was removed by suction. Then, 300 to 500 μL of 1% BSA/PBS was added thereto, and the pipetted sample was subjected to flow cytometric analysis using an Attune NxT Flow Cytometer (Thermo Fisher Scientific, Inc.).

[2] = system: mouse fibroblast cell line NIH/3T3; assay: Inhibition of growth factor activity of VHH homodimer by FGFR inhibitor (fibroblasts); type: cell-based; conditions: 10 and 100 ng/ml test substance plus FGFR kinase inhibitor
Text: Promotion of Fibroblast Growth by VHH (Homodimer)” described above.
It was examined whether the cell growth activities of bFGF and the single-domain antibody were inhibited by NPV-BGJ398 which is an FGFR kinase inhibitor.

[3] = system: mouse fibroblast cell line NIH/3T3; assay: Solution preservation stability of bFGF and VHH homodimer, read out by fibroblast growth; type: cell-based; conditions: 0.5 mg/mL in D-PBS, fibroblast growth on second day
Experimental: bFGF and the VHH homodimer (SEQ ID NO: 23, sequence name: #1-LA-#1, sometimes referred to as a single-domain antibody) was mixed with a D-PBS solution (Fujifilm Wako Pure Chemical Corporation) so that the concentration was 0.5 mg/mL, and incubation was performed at 37° C. for 1 week. Then, the growth promoting abilities for fibroblast growth of four test subjects, which are an incubated VHH homodimer, a pre-incubated bFGF, a VHH homodimer after thawing from freeze-preservation, and bFGF immediately after solutionizing with D-PBS from a freeze-dried product, were evaluated. As a negative control, culture without any of the bFGF and the VHH homodimer was also performed at the same time. The culture conditions were the same as those in Item 1 and Item 2 of the present Example, and the cell growth was evaluated by the number of cells on the second day after the start of culture.

[4] = Thermal stability by protein thermal shift assay (SYPRO Orange); type: physicochemical; conditions: 0.5 mg/mL in D-PBS, 25° C. to 95° C., 1° C./min
Experimental: The Td is evaluated by a Td value at the time of raising the temperature from 25° C. to 95° C. (temperature rising rate: 1° C./min) under the solution conditions of a protein concentration (0.5 mg/mL) in a D-PBS solution (including 0.2 g of KH2PO4, 1.15 g of Na2HPO4, 0.2 g of KCl, and 8 g of NaCl per liter of the aqueous solution, pH 7.4).
The thermal stability of VHH was measured by a protein thermal shift assay method.
In order to confirm the thermal stability of the VHH monomer Clone #1 and the tandem dimer #1L4, the denaturation temperature (Td) was measured by a protein thermal shift assay method. […] In addition, in order to measure the fluorescence background, a control including no protein was also prepared at the same time, and dispensed into an 8-strip PCR tube (manufactured by Nippon Genetics Co., Ltd.). This tube was set in a real-time PCR measuring device, QuantStudio 3 (manufactured by Thermo Fisher Scientific, Inc.), and a change in fluorescence intensity in a range of 25° C. to 95° C. was measured under the condition of 1° C./min using a fluorescence filter for ROX measurement. After the measurement, Td was calculated using the value obtained by subtracting the background value from the measured value.

Row | Molecule | undifferentiation markers OCT4 and SSEA4 (iPS cells (253G1 cells)) | CD90-expressing cells ([1]; "at ng/mL" (figure not given)) | CD90-expressing (positive) cells [1] | cell growth with addition of NPV-BGJ398 [2] | cell growth activity after incubation at 37° C. for 1 week [3] | denaturation temperature (Td) [4] [°C]
1 | FGF2: fibroblast growth factor (basic), human, recombinant (154aa), positive control; SEQ ID NO: 58 [reference compound] | positive | less than 95% | decreased in inverse proportion to the concentration | suppressed cell growth | the same as that in the case of no addition | 
2 | VHH Clone #1: alpaca-derived VHH single-domain antibody (monomer) binding FGFR1, amino acid sequence SEQ ID NO: 17 (protein, VHH_Clone_#1) VHH: QLQLVESGGGSVQAGGSLRLSCAASRSLSRFNVWTWYRQAPVKQRELVASITKSGDTNYAESVKGRFIISRDDDKNTVYLQMNNLKSEDTGIYYCAGSYYSGSYLYPSPGGFSVWGQGTQVTVSS |  |  |  |  |  | 74.1
3 | #1-L4-#1: dimer of VHH #1 with linker L4 (GSEGKSSGSGSESKST), SEQ ID NO: 23 (protein, #1-L4-#1) VHH: QLQLVESGGGSVQAGGSLRLSCAASRSLSRFNVWTWYRQAPVKQRELVASITKSGDTNYAESVKGRFIISRDDDKNTVYLQMNNLKSEDTGIYYCAGSYYSGSYLYPSPGGFSVWGQGTQVTVSSGSEGKSSGSGSESKSTQLQLVESGGGSVQAGGSLRLSCAASRSLSRFNVWTWYRQAPVKQRELVASITKSGDTNYAESVKGRFIISRDDDKNTVYLQMNNLKSEDTGIYYCAGSYYSGSYLYPSPGGFSVWGQGTQVTVSS | positive |  | ≥ 97% | suppressed cell growth | exhibited the same cell growth activity as that of bFGF | 75.4
